Data taken from paper PMC2774669 (Microbial Cell Factories, 2009).

Biological target: the molecule itself
Test: aggregation kinetics by turbidity

B1: HET-s prion forming domain (PFD), HET-s(218-289) (domain or fragment, Podospora anserina, UniProt Q03689 218-289, looked up)
chain: KIDAIVGRNSAKDIRTEERARVQLGNVVTAAALHGGIRISDQTTNSVETVVGKGESRVLIGNEYGGKGFWDN
notes: also called HET-s PFD
binding result: binds
